In patent publication US20180340159:

Molecular target: T1, propeptide of Rhizomucor miehei lipase (RmL)
T1 chain: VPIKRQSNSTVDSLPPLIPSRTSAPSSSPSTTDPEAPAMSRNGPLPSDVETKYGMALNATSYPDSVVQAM

B1: Rhizomucor miehei lipase (RmL) wild type mature protein (protein)
chain: SIDGGIRAATSQEINELTYYTTLSANSYCRTVIPGATWDCIHCDATEDLKIIKTWSTLIYDTNAMVARGDSEKTIYIVFRGSSSIRNWIADLTFVPVSYPPVSGTKVHKGFLDSYGEVQNELVATVLDQFKQYPSYKVAVTGHSLGGATALLCALDLYQREEGLSSSNLFLYTQGQPRVGDPAFANYVVSTGIPYRRTVNERDIVPHLPPAAFGFLHAGEEYWITDNSPETVQVCTSDLETSDCSNSIVPFTSVLDHLSYFGINTGLCT
lipase hydrolytic activity (4-MU oleate), average slope; incubated with 5 µM TCEP: 22 RFU/sec | lipase hydrolytic activity (4-MU oleate), average slope; incubated with 5 uM TCEP + Model B: 66 RFU/sec | lipase hydrolytic activity (4-MU oleate), average slope; incubated with 1.35% Savinase + Model B: 143 RFU/sec | lipase hydrolytic activity (4-MU oleate), average slope; incubated with 2% NaSO2: 28 RFU/sec | lipase hydrolytic activity (4-MU oleate), average slope; incubated with 2% NaSO2 + Model B: 66 RFU/sec
